Measured values: patent US9745384B2, “Peptides useful for modulating histone demethylase function” (The Brigham and Women's Hospital, Inc., priority 2012, dated 2017)

Tests used:
H3Kc36me3 nucleosomes = test: MLA nucleosome pulldown by GST-NPAC.d1; type: binding; conditions: H3Kc36me3, H3Kc79me3, H3Kc9me3, H3Kc27me3, unmodified
Description: MLA nucleosomes were reconstituted using 147 bp double-strand alpha satellite DNA and recombinant histones expressed and purified from E. coli. Tri-methylation was chemically introduced to H3K9C, H3K27C, H3K36C and H3K79C histones respectively as described (Simon et al., 2007). 2 μg MLA nucleosome was used for GST-pulldown as described above.

double strand DNA = test: DNA binding assay (GST-pulldown)
Description: 5-10 μg GST and GST-tagged NPAC truncation proteins were incubated with 1 μg linearized plasmid DNA overnight at 4° C. in 50 mM Tris pH 7.4, 200 mM NaCl, 0.2% NP-40, 1 mM MgCl2, 1 mM EDTA, 1 mM DTT, 0.02 mM ZnSO4. After extensive washing with the same buffer, bound DNA was eluted by incubating with 100 μl 10 mM Tris pH 8.0, 1% SDS for 15 minutes at 65° C. Pulldown DNA was purified using Qiagen PCR purification kit, resolved by agarose gel electrophoresis and stained with Ethidium Bromide.

[1] = tested on: nucleosomes purified from HeLa; test: Nucleosome pulldown by GST-NPAC proteins; type: binding
Description: Nucleosomes were purified from HeLa as previously described (Umlauf et al., 2004). To examine nucleosome binding selectivity of NPAC, 5 μg GST fusion protein bound to glutathione agarose were incubated with 20 μg nucleosomes overnight at 4° C. in nucleosome binding buffer (50 mM NaPO4 pH 7.4, 200 mM NaCl, 0.5% NP-40, 5% glycerol, 10 μM ZnSO4, 1 mM MgCl2, 1 mM DTT, 0.1 mM PMSF). After washing 4 times with the same buffer at 4° C., the beads were boiled in 1×SDS sample loading buffer and elute was resolved by 15% SDS-PAGE for immunoblot analysis or coomassie staining.
For free-DNA competition assays, human genomic DNA was purified from HeLa cells and fragmented to an average size around 300 bp by sonication. Equal amounts of GST-NPAC.d5 bound to glutathione beads were pre-incubated with 0, 5, 10, 25 μg genomic DNA fragments in nucleosome binding buffer for 30 minutes at room temperature, and equal amounts of nucleosomes were added and incubated overnight at 4° C. After extensive washing, GST-NPAC.d5 and bound nucleosomes were eluted by boiling in 1×SDS sample loading buffer, resolved by SDS-PAGE and stained with coomassie blue.

B1: NPAC.d1: Example 2 GST-NPAC truncation, residues 1-150 (protein, UniProt Q49A26 1-150, looked up, fragment)
chain: MAAVSLRLGDLVWGKLGRYPPWPGKIVNPPKDLKKPRGKKCFFVKFFGTEDHAWIKVEQLKPYHAHKEEMIKINKGKRFQQAVDAVEEFLRRAKGKDQTSSHNSSDDKNRRNSSEERSRPNSGDEKRKLSLSEGKVKKNMGEGKKRVSSG
modifications: GST tag
Binding to modification-specific MLA nucleosomes (H3Kc36me3 nucleosomes): highest binding affinity for H3Kc36me3 nucleosomes over H3Kc79me3
DNA binding (GST-pulldown) (double strand DNA): can bind to double strand DNA
Nucleosome binding (GST-pulldown) [1]: strong binding to nucleosomes
